Results published in patent US20220411521A1 (Ablynx, published 2022).

T1: human GITR (human, UniProt Q9Y5U5 26-241)
T1 sequence: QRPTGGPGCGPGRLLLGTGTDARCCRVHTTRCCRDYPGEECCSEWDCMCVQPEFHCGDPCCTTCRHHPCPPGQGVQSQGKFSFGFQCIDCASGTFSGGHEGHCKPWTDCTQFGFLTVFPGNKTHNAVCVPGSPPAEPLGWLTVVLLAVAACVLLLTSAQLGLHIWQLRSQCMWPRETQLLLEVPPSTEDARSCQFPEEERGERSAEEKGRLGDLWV

T2: human GITR-Fc (Enzo Life Sciences, ALX-522-061-C050) (human, UniProt Q9Y5U5 26-162)
T2 construct: Bought protein; not shown: Fc part of the bought fusion protein; not described
T2 sequence: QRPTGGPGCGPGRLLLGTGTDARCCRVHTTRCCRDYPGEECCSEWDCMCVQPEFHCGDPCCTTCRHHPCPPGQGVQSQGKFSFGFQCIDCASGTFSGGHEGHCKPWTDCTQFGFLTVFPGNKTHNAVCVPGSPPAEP

B1: A023100107 (VHH)
chain: DVQLVESGGGVVQPGGSLRLSCAASETIFSIDSMAWYRQAPGKQRELVAAITGGGSPNYADSVKGRFTISSDVSKRTVYLQMNSLRPEDTALYYCNAEGQAGWGTALLDYWGQGTLVTVSSGGGGSGGGSEVQLVESGGGVVQPGGSLRLSCAASETIFSIDSMAWYRQAPGKQRELVAAITGGGSPNYADSVKGRFTISSDVSKRTVYLQMNSLRPEDTALYYCNAEGQAGWGTALLDYWGQGTLVTVSSGGGGSGGGSEVQLVESGGGVVQPGGSLRLSCAASETIFSIDSMAWYRQAPGKQRELVAAITGGGSPNYADSVKGRFTISSDVSKRTVYLQMNSLRPEDTALYYCNAEGQAGWGTALLDYWGQGTLVTVSSGGGGSGGGSEVQLVESGGGVVQPGGSLRLSCAASETIFSIDSMAWYRQAPGKQRELVAAITGGGSPNYADSVKGRFTISSDVSKRTVYLQMNSLRPEDTALYYCNAEGQAGWGTALLDYWGQGTLVTVSSGGGGSGGGGSGGGGSGGGGSGGGGSGGGGSGGGGSEVQLVESGGGVVQPGGSLRLSCAASGFTFRSFGMSWVRQAPGKGPEWVSSISGSGSDTLYADSVKGRFTISRDNSKNTLYLQMNSLRPEDTALYYCTIGGSLSRSSQGTLVTVSSA
B2: A023100127 (VHH)
chain: DVQLVESGGGVVQPGGSLRLSCAASGSIFSIDSMGWYRQAPGKQRELVAAITSSTNYADSVKGRFTISRDNSKNTVYLQMNSLRPEDTALYYCNLEGQAGWGTALINYWGQGTLVTVSSGGGGSGGGSEVQLVESGGGVVQPGGSLRLSCAASGSIFSIDSMGWYRQAPGKQRELVAAITSSTNYADSVKGRFTISRDNSKNTVYLQMNSLRPEDTALYYCNLEGQAGWGTALINYWGQGTLVTVSSGGGGSGGGSEVQLVESGGGVVQPGGSLRLSCAASGSIFSIDSMGWYRQAPGKQRELVAAITSSTNYADSVKGRFTISRDNSKNTVYLQMNSLRPEDTALYYCNLEGQAGWGTALINYWGQGTLVTVSSGGGGSGGGSEVQLVESGGGVVQPGGSLRLSCAASGSIFSIDSMGWYRQAPGKQRELVAAITSSTNYADSVKGRFTISRDNSKNTVYLQMNSLRPEDTALYYCNLEGQAGWGTALINYWGQGTLVTVSSGGGGSGGGGSGGGGSGGGGSGGGGSGGGGSGGGGSEVQLVESGGGVVQPGGSLRLSCAASGFTFRSFGMSWVRQAPGKGPEWVSSISGSGSDTLYADSVKGRFTISRDNSKNTLYLQMNSLRPEDTALYYCTIGGSLSRSSQGTLVTVSSA
B3: A023100118 (VHH)
chain: DVQLVESGGGVVQPGGSLRLSCAASETIFSIDSMAWYRQAPGKQRELVAAITGGGSPNYADSVKGRFTISSDVSKRTVYLQMNSLRPEDTALYYCNAEGQAGWGTALLDYWGQGTLVTVSSGGGGSGGGSEVQLVESGGGVVQPGGSLRLSCAASETIFSIDSMAWYRQAPGKQRELVAAITGGGSPNYADSVKGRFTISSDVSKRTVYLQMNSLRPEDTALYYCNAEGQAGWGTALLDYWGQGTLVTVSSGGGGSGGGSEVQLVESGGGVVQPGGSLRLSCAASETIFSIDSMAWYRQAPGKQRELVAAITGGGSPNYADSVKGRFTISSDVSKRTVYLQMNSLRPEDTALYYCNAEGQAGWGTALLDYWGQGTLVTVSSGGGGSGGGSEVQLVESGGGVVQPGGSLRLSCAASETIFSIDSMAWYRQAPGKQRELVAAITGGGSPNYADSVKGRFTISSDVSKRTVYLQMNSLRPEDTALYYCNAEGQAGWGTALLDYWGQGTLVTVSSGGGGSGGGSEVQLVESGGGVVQPGGSLRLSCAASETIFSIDSMAWYRQAPGKQRELVAAITGGGSPNYADSVKGRFTISSDVSKRTVYLQMNSLRPEDTALYYCNAEGQAGWGTALLDYWGQGTLVTVSSGGGGSGGGGSGGGGSGGGGSGGGGSGGGGSGGGGSEVQLVESGGGVVQPGGSLRLSCAASGFTFRSFGMSWVRQAPGKGPEWVSSISGSGSDTLYADSVKGRFTISRDNSKNTLYLQMNSLRPEDTALYYCTIGGSLSRSSQGTLVTVSSA
B4: A023100101 (VHH)
chain: DVQLVESGGGVVQPGGSLRLSCAASETIFSIDSMAWYRQAPGKQRELVAAITGGGSPNYADSVKGRFTISSDVSKRTVYLQMNSLRPEDTALYYCNAEGQAGWGTALLDYWGQGTLVTVSSGGGGSGGGSEVQLVESGGGVVQPGGSLRLSCAASETIFSIDSMAWYRQAPGKQRELVAAITGGGSPNYADSVKGRFTISSDVSKRTVYLQMNSLRPEDTALYYCNAEGQAGWGTALLDYWGQGTLVTVSSGGGGSGGGSEVQLVESGGGVVQPGGSLRLSCAASETIFSIDSMAWYRQAPGKQRELVAAITGGGSPNYADSVKGRFTISSDVSKRTVYLQMNSLRPEDTALYYCNAEGQAGWGTALLDYWGQGTLVTVSSGGGGSGGGGSGGGGSGGGGSGGGGSGGGGSGGGGSEVQLVESGGGVVQPGGSLRLSCAASGFTFRSFGMSWVRQAPGKGPEWVSSISGSGSDTLYADSVKGRFTISRDNSKNTLYLQMNSLRPEDTALYYCTIGGSLSRSSQGTLVTVSSA
B5: A023100105 (VHH)
chain: DVQLVESGGGVVQPGGSLRLSCAASGSIFSIDSMGWYRQAPGKQRELVAAITSSTNYADSVKGRFTISRDNSKNTVYLQMNSLRPEDTALYYCNLEGQAGWGTALINYWGQGTLVTVSSGGGGSGGGSEVQLVESGGGVVQPGGSLRLSCAASGSIFSIDSMGWYRQAPGKQRELVAAITSSTNYADSVKGRFTISRDNSKNTVYLQMNSLRPEDTALYYCNLEGQAGWGTALINYWGQGTLVTVSSGGGGSGGGSEVQLVESGGGVVQPGGSLRLSCAASGSIFSIDSMGWYRQAPGKQRELVAAITSSTNYADSVKGRFTISRDNSKNTVYLQMNSLRPEDTALYYCNLEGQAGWGTALINYWGQGTLVTVSSGGGGSGGGGSGGGGSGGGGSGGGGSGGGGSGGGGSEVQLVESGGGVVQPGGSLRLSCAASGFTFRSFGMSWVRQAPGKGPEWVSSISGSGSDTLYADSVKGRFTISRDNSKNTLYLQMNSLRPEDTALYYCTIGGSLSRSSQGTLVTVSSA
B6: A0231052E08 (VHH)
VHH: EVQLVESGGGLVQAGGSLRLSCTGSRSIFSTYAMAWHRQAPGKQRELVGFIYWGGTTTYSDSVKGRFTISRDNAKNTMYLQMNSLKPEDAGVYYCNIYGSYALPWGQGTLVTVSS
notes: Monovalent Nanobody expressed in E. coli with a triple Flag, HIS6 tag; also called A0231PMP052E08; PA0231PMP052E08.1; not shown: C-terminal triple FLAG and HIS6 tag
B7: A0231051E01 (VHH)
VHH: EVQLVESGGGLVQAGGSLRLSCAASGSIFSFIVMGWYRQAPGEQRALVATVTSGGDTFYVDSVKDRFTISRDNAKNTVYLQMNSLKPEDTAVYFCYFTKVSPYKETTWGQGTLVTVSS
notes: Monovalent Nanobody expressed in E. coli with a triple Flag, HIS6 tag; also called A0231PMP051E01; PA0231PMP051E01.1; not shown: C-terminal triple FLAG and HIS6 tag

What follows are binders tested against T1, human GITR (assay: cell-based or functional assay).
In the case of B1, the “EC50, HEK293_NF-κB luc reporter” value is reported as 14.7 pM and the “Efficacy (%), human GITR ligand = 100%, HEK293_NF-κB luc reporter” value (shortened to “Efficacy (%) … HEK293_NF-κB luc reporter”) is reported as 147%.
In the case of B2, the “EC50, HEK293_NF-κB luc reporter” value is reported as 15.7 pM and the “Efficacy (%) … HEK293_NF-κB luc reporter” value is reported as 150%.
In the case of B3, the “EC50, HEK293_NF-κB luc reporter” value is reported as 12.8 pM and the “Efficacy (%) … HEK293_NF-κB luc reporter” value is reported as 140%.
For B4, the “EC50, HEK293_NF-κB luc reporter” value was 20 pM and the “Efficacy (%) … HEK293_NF-κB luc reporter” value was 136%.

Target: T1, human GITR
Test: cell-based or functional assay
Remark: another data set of the same source
For B1, the “EC50, IFN-γ read-out, human T cell activation assay” value (from here on “EC50, IFN-γ read-out”) was 64.6 pM and the “Maximal efficacy (%), human GITR ligand = 100%, IFN-γ read-out” value (shortened to “Maximal efficacy (%)”) was 99.8%.
With B2 the “EC50, IFN-γ read-out” value was 58.7 pM and the “Maximal efficacy (%)” value was 86.8%.
B3 was tested, and the “EC50, IFN-γ read-out” value was 42.6 pM and the “Maximal efficacy (%)” value was 95.6%.
For B4, the “EC50, IFN-γ read-out” value was 64.2 pM and the “Maximal efficacy (%)” value was 92.6%.
With B5 the “EC50, IFN-γ read-out” value was 60 pM and the “Maximal efficacy (%)” value was 97%.

These binders were tested against T2, human GITR-Fc (Enzo Life Sciences, …) (assay: ProteOn XPR36; human GITR-Fc amine-coupled on GLC chip, Nanobody injected at 6 concentrations).
Description: Affinity was determined on the Proteon XPR36. Briefly, after human GITR-Fc (Enzo Life Sciences, ALX-522-061-C050) was immobilized on a GLC chip via amine coupling, a range of 6 concentrations of different monovalent Nanobodies (representing each family) were injected. The Ko values were determined by using the calculated association rate and dissociation rate constants (Table 1) (ProteOn Manager 3.1.0, Version 3.1.0.6 (2011)).
Binder B6 has a Kd of 120 nM, a koff of 0.09 s⁻¹ and a kon of 750000 M⁻¹ s⁻¹.
B7 gave a Kd of 78 nM, a koff of 0.015 s⁻¹ and a kon of 190000 M⁻¹ s⁻¹.
